Among the data in paper PMC2115937 are percent of 125I-EGF in endosomes that is receptor bound (10 ug EGF injected) values, retold here.

For the assay, the target named is epidermal growth factor receptor (EGF receptor kinase), rat liver (rat (endogenous in rat liver)). Nature of the assay: polyethylene glycol precipitation of receptor-bound radioligand.

For “epidermal growth factor (EGF) (from UniProt P01132 977-1029) (ligand)”, the percent of 125I-EGF in endosomes that is receptor bound (10 ug EGF injected) stood at 77%.
